{"source": "paper PMC7102971", "about": "(Nucleic Acids Research, 2020)", "proteins": {"B1": {"name": "SFPQ-276-535 (dimerization domain of human SFPQ) (domain or fragment)", "chain": "EGFKANLSLLRRPGEKTYTQRCRLFVGNLPADITEDEFKRLFAKYGEPGEVFINKGKGFGFIKLESRALAEIAKAELDDTPMRGRQLRVRFATHAAALSVRNLSPYVSNELLEEAFSQFGPIERAVVIVDDRGRSTGKGIVEFASKPAARKAFERCSEGVFLLTTTPRPVIVEPLEQLDDEDGLPEKLAQKNPMYQKERETPPRFAQHGTFEYEYSQRWKSLDEMEKQQREQVEKNMKDAKDKLESEMEDAYHEHQANLL"}}, "target": "the molecule itself", "assay": "crystal structure", "data": [{"protein": "B1", "values": [{"measurement": "binding result", "value": "binds"}]}]}
